Experimental data from patent publication US20240360436A1 (DDBIO, published 2024).
Positions count from the first letter of the chain named.

B1: Selicrelumab (Fab, V domains shown)
VH: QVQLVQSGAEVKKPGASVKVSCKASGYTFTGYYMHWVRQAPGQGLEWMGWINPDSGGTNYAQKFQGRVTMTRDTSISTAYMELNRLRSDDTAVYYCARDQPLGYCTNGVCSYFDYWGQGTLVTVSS
VL: DIQMTQSPSSVSASVGDRVTITCRASQGIYSWLAWYQQKPGKAPNLLIYTASTLQSGVPSRFSGSGSGTDFTLTISSLQPEDFATYYCQQANIFPLTFGGGTKVEIKR
notes: Also expressed as full-length antibody; also called #1; Positive antibody
B2: DDBK003-13 (Fab, V domains shown)
VH: EVQLVQSGPGLVRPSETLSLTCSASGGSVSSASDLWGWIRQAPGKGLEWIGNIYYLGKTDYNPSLGGRVSITMDKSKNQFSLRLSSVTAADTAMYYCAKRSTLPMRGFFVSWGQGTTVTVSS
VL: B1 VL
notes: Heavy-chain replacement clone of Selicrelumab; also expressed as KLC/IgG1
B3: DDBK003-12 (Fab, V domains shown)
VH: QVQLQESGPGLVKPSETLSLTCNVSGYSITRGYFWGWIRQPPGKGLEWIGSIYQSGAARYNPSLQSRVTLSVDTSKNQFSLKLTSVTAADTAVYYCARDAATQVRGSWYNGYYFDPWGQGTLVTVSS
VL: B1 VL
notes: as for B2
B4: DDBK003-14 (Fab, V domains shown)
VH: QVQLVESGAEVKKPGSSVKVSCKASGGTFSASAISWVRQAPGQGLEWMGGIFPILGSANYAQKFQGRVTITADESTSTAYMELSSLRSEDTAVYYCARDLAGYNYGFFGYWGRGTLVTVSS
VL: B1 VL with Y30N, K42R, N45K, N92K, I93S
notes: Light- and heavy-chain double replacement clone of Selicrelumab; also expressed as KLC/IgG1
B5: DDBK003-16 (Fab, V domains shown)
VH: B4 VH
VL: B1 VL with Y30S, N45K, T50A, T53S, I93S, V104L
notes: as for B4
B6: DDBK003-2 (Fab, V domains shown)
VH: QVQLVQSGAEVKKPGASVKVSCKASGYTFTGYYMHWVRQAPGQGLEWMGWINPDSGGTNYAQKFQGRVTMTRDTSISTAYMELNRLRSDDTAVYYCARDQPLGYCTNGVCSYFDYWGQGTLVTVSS
VL: DIQMTQSPSSVSASVGDRVTITCRATQDIRPWLAWYQQRPGKAPQLLIYRTSTLQSGVPSRFSGSGSGTDFTLTISNLQPEDFATYYCQHAKIFPITFGQGTRLEIKR
notes: Light-chain replacement clone of Selicrelumab; also expressed as full-length antibody (KLC/IgG1)
B7: DDBK003-3 (Fab, V domains shown)
VH: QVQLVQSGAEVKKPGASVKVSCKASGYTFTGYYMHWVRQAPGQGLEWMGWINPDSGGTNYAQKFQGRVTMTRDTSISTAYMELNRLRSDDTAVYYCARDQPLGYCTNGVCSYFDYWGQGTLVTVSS
VL: DIQMTQSPSSVSASIGDRVTVTCRASQAIGSWVAWYQQKPGKVPKLLIYSASKIQSGVPSRFSGSGSGTDFTLTISSLQPEDFATYYCQQANSFPITFGQGTLLEIKR
notes: Light-chain replacement clone of Selicrelumab; also expressed as KLC/IgG1

Molecular target: T1, CD40 antigen (biotin-label-free, AcroBio Cat #: CDO-H5253) (UniProt P25942 21-193)
T1 construct: Bought protein; A biotin-labeled form (CDO-H82E8) was used for panning only; also called CD40 antigens
Experiment: ELISA, CD40 antigen coated, anti-flag-HRP, OD405

T1 sequence (P25942 21-193 limits assumed): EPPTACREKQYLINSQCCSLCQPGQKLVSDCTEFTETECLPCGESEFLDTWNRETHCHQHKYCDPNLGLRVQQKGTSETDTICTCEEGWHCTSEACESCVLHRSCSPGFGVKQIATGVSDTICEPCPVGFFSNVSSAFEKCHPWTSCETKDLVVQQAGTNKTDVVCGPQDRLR

Binder | ELISA reading [OD405]
B1 | 2.92
B2 | 3.33
B3 | 3.22
B4 | 2.02
B5 | 1.93
B6 | 3.15
B7 | 2.87
